Values quoted from earlier work in PMC3145095.
pKd: −log10 of the molar value.

Molecular target: CD8αα (Mus musculus) (UniProt P01731)
Chain of UniProt P01731 (P01731 28-196): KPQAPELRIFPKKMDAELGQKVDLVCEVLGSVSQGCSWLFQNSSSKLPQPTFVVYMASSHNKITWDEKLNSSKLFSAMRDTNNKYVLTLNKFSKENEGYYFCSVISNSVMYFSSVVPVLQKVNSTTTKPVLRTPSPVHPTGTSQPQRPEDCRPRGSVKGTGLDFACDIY

pKd: 4.92
Substance: Thymus leukaemia antigen (TL) (from UniProt P14432)
